Target: T1, recombinant human activated Factor VII (FVIIa) (human, UniProt P08709 61-212; P08709 213-466, ten glutamate residues of the Gla domain may be gamma-carboxylated)
T1 construct: chains tethered by a disulfide bond; also called Factor VIIa; rFVIIa
T1 sequence 1: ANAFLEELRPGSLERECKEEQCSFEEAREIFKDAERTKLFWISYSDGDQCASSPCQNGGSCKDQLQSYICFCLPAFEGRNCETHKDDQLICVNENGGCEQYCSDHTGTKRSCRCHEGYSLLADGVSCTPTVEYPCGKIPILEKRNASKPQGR
T1 sequence 2: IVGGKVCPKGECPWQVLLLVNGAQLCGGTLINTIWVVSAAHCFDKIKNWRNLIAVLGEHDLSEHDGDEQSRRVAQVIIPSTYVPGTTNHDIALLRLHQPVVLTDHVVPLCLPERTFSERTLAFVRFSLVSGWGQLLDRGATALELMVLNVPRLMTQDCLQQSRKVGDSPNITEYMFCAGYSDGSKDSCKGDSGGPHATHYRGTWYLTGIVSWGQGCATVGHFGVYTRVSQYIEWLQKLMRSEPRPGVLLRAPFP
Assay: BLI (Fortebio)

B1: VH SEQ ID NO 634 / VL SEQ ID NO 390 (antibody, IgG4, V domains shown)
VH: QVQLQESGPGLVKPSQTLSLTCTVSGYSISSDSAWSWIRQPPGKGLEWIGYIQYSGSTNYNPSLKSRVTISRDTSKNQFSLKLSSVTAADTAVYYCARSVNYYGNSFAVGYWGQGTLVTVSS
VL: EIVLTQSPATLSLSPGERATLSCRASQGVSDYLAWYQQKPGEAPRLLIKYASQPATGIPARFSGSGSGTDFTLTISSLEPEDFAVYYCQNGHSFPLTFGQGTKLEIK
notes: humanized 11F2; IgG4 S228P/kappa
For B1, the Kd was 4.3 nM.

B2: VH SEQ ID NO 634 / VL SEQ ID NO 470 (antibody, IgG4, V domains shown)
VH: QVQLQESGPGLVKPSQTLSLTCTVSGYSISSDSAWSWIRQPPGKGLEWIGYIQYSGSTNYNPSLKSRVTISRDTSKNQFSLKLSSVTAADTAVYYCARSVNYYGNSFAVGYWGQGTLVTVSS
VL: EIVLTQSPATLSLSPGERATLSCRASQGVSDYLHWYQQKPGQAPRLLIKYASQPATGIPARFSGSGSGTDFTLTISSLEPEDFAVYYCQNGHSFPLTFGQGTKLEIK
notes: as for B1
For B2, the Kd was 1 nM.

B3: VH SEQ ID NO 634 / VL SEQ ID NO 398 (antibody, IgG4, V domains shown)
VH: QVQLQESGPGLVKPSQTLSLTCTVSGYSISSDSAWSWIRQPPGKGLEWIGYIQYSGSTNYNPSLKSRVTISRDTSKNQFSLKLSSVTAADTAVYYCARSVNYYGNSFAVGYWGQGTLVTVSS
VL: EIVLTQSPATLSLSPGERATLSCRASQGVSDYLAWYQQKPGEAPRLLIKYTSQPATGIPARFSGSGSGTDFTLTISSLEPEDFAVYYCQNGHSFPLTFGQGTKLEIK
notes: as for B1
With B3 the Kd was 8.2 nM.

B4: VH SEQ ID NO 634 / VL SEQ ID NO 422 (antibody, IgG4, V domains shown)
VH: QVQLQESGPGLVKPSQTLSLTCTVSGYSISSDSAWSWIRQPPGKGLEWIGYIQYSGSTNYNPSLKSRVTISRDTSKNQFSLKLSSVTAADTAVYYCARSVNYYGNSFAVGYWGQGTLVTVSS
VL: EIVLTQSPATLSLSPGERATLSCRASQGVSDYLAWYQQKPGQAPRLLIKYASQPATGIPARFSGSGSGTDFTLTISSLEPEDFAVYYCQQGHSFPLTFGQGTKLEIK
notes: as for B1
B4 gave a Kd of 26 nM.

B5: VH SEQ ID NO 634 / VL SEQ ID NO 494 (antibody, IgG4, V domains shown)
VH: QVQLQESGPGLVKPSQTLSLTCTVSGYSISSDSAWSWIRQPPGKGLEWIGYIQYSGSTNYNPSLKSRVTISRDTSKNQFSLKLSSVTAADTAVYYCARSVNYYGNSFAVGYWGQGTLVTVSS
VL: EIVLTQSPATLSLSPGERATLSCRASQGVSDYLHWYQQKPGQAPRLLIKYASQPATGIPARFSGSGSGTDFTLTISSLEPEDVAVYYCQNGHSFPLTFGQGTKLEIK
notes: as for B1
In the case of B5, the Kd is reported as 1.3 nM.

B6: VH SEQ ID NO 634 / VL SEQ ID NO 438 (antibody, IgG4, V domains shown)
VH: QVQLQESGPGLVKPSQTLSLTCTVSGYSISSDSAWSWIRQPPGKGLEWIGYIQYSGSTNYNPSLKSRVTISRDTSKNQFSLKLSSVTAADTAVYYCARSVNYYGNSFAVGYWGQGTLVTVSS
VL: EIVLTQSPATLSLSPGERATLSCRASQGVSDYLAWYQQKPGQAPRLLIKYASQPATGIPARFSGSGSGTDFTLTISSLEPEDVAVYYCQNGHSFPLTFGQGTKLEIK
notes: as for B1
Work on B6 yielded a Kd of 4.8 nM.

B7: VH SEQ ID NO 634 / VL SEQ ID NO 430 (antibody, IgG4, V domains shown)
VH: QVQLQESGPGLVKPSQTLSLTCTVSGYSISSDSAWSWIRQPPGKGLEWIGYIQYSGSTNYNPSLKSRVTISRDTSKNQFSLKLSSVTAADTAVYYCARSVNYYGNSFAVGYWGQGTLVTVSS
VL: EIVLTQSPATLSLSPGERATLSCRASQGVSDYLAWYQQKPGQAPRLLIKYASQPATGIPARFSGSGSGTDFTLTISSLEPEDFGVYYCQNGHSFPLTFGQGTKLEIK
notes: as for B1
In the case of B7, the Kd is reported as 4.9 nM.

B8: VH SEQ ID NO 634 / VL SEQ ID NO 486 (antibody, IgG4, V domains shown)
VH: QVQLQESGPGLVKPSQTLSLTCTVSGYSISSDSAWSWIRQPPGKGLEWIGYIQYSGSTNYNPSLKSRVTISRDTSKNQFSLKLSSVTAADTAVYYCARSVNYYGNSFAVGYWGQGTLVTVSS
VL: EIVLTQSPATLSLSPGERATLSCRASQGVSDYLHWYQQKPGQAPRLLIKYASQPATGIPARFSGSGSGTDFTLTISSLEPEDFGVYYCQNGHSFPLTFGQGTKLEIK
notes: as for B1
B8 gave a Kd of 1.4 nM.

B9: VH SEQ ID NO 634 / VL SEQ ID NO 462 (antibody, IgG4, V domains shown)
VH: QVQLQESGPGLVKPSQTLSLTCTVSGYSISSDSAWSWIRQPPGKGLEWIGYIQYSGSTNYNPSLKSRVTISRDTSKNQFSLKLSSVTAADTAVYYCARSVNYYGNSFAVGYWGQGTLVTVSS
VL: EIVLTQSPATLSLSPGERATLSCRASQGVSDYLHWYQQKPGQAPRLLIKYASQPATGIPARFSGSGSGTDFTLTISSLEPEDFAVYYCQNGHSFPLTFGAGTKLEIK
notes: as for B1
With B9 the Kd was 1.2 nM.

B10: VH SEQ ID NO 634 / VL SEQ ID NO 478 (antibody, IgG4, V domains shown)
VH: QVQLQESGPGLVKPSQTLSLTCTVSGYSISSDSAWSWIRQPPGKGLEWIGYIQYSGSTNYNPSLKSRVTISRDTSKNQFSLKLSSVTAADTAVYYCARSVNYYGNSFAVGYWGQGTLVTVSS
VL: EIVLTQSPATLSLSPGERATLSCRASQGVSDYLHWYQQKPGQAPRLLIKYASQPATGIPARFSGSGSGTDFTLTISSLEPEDFAVYYCQQGHSFPLTFGQGTKLEIK
notes: as for B1
In the case of B10, the Kd is reported as 1.8 nM.

B11: VH SEQ ID NO 634 / VL SEQ ID NO 406 (antibody, IgG4, V domains shown)
VH: QVQLQESGPGLVKPSQTLSLTCTVSGYSISSDSAWSWIRQPPGKGLEWIGYIQYSGSTNYNPSLKSRVTISRDTSKNQFSLKLSSVTAADTAVYYCARSVNYYGNSFAVGYWGQGTLVTVSS
VL: EIVLTQSPATLSLSPGERATLSCRASQGVSDYLAWYQQKPGQAPRLLIKYASQPATGIPARFSGSGSGTDFTLTISSLEPEDFAVYYCQNGHSFPLTFGAGTKLEIK
notes: as for B1
In the case of B11, the Kd is reported as 4.2 nM.

B12: VH SEQ ID NO 634 / VL SEQ ID NO 414 (antibody, IgG4, V domains shown)
VH: QVQLQESGPGLVKPSQTLSLTCTVSGYSISSDSAWSWIRQPPGKGLEWIGYIQYSGSTNYNPSLKSRVTISRDTSKNQFSLKLSSVTAADTAVYYCARSVNYYGNSFAVGYWGQGTLVTVSS
VL: EIVLTQSPATLSLSPGERATLSCRASQGVSDYLAWYQQKPGQAPRLLIKYASQPATGIPARFSGSGSGTDFTLTISSLEPEDFAVYYCQNGHSFPLTFGQGTKLEIK
notes: as for B1
B12 gave a Kd of 4.6 nM.

B13: VH SEQ ID NO 634 / VL SEQ ID NO 454 (antibody, IgG4, V domains shown)
VH: QVQLQESGPGLVKPSQTLSLTCTVSGYSISSDSAWSWIRQPPGKGLEWIGYIQYSGSTNYNPSLKSRVTISRDTSKNQFSLKLSSVTAADTAVYYCARSVNYYGNSFAVGYWGQGTLVTVSS
VL: EIVLTQSPATLSLSPGERATLSCRASQGVSDYLHWYQQKPGEAPRLLIKYASQPATGIPARFSGSGSGTDFTLTISSLEPEDFAVYYCQNGHSFPLTFGQGTKLEIK
notes: as for B1
With B13 the Kd was 1.2 nM.

B14: VH SEQ ID NO 634 / VL SEQ ID NO 446 (antibody, IgG4, V domains shown)
VH: QVQLQESGPGLVKPSQTLSLTCTVSGYSISSDSAWSWIRQPPGKGLEWIGYIQYSGSTNYNPSLKSRVTISRDTSKNQFSLKLSSVTAADTAVYYCARSVNYYGNSFAVGYWGQGTLVTVSS
VL: EIVLTQSPATLSLSPGERATLSCRASQGVSDYLAWYQQKPGQAPRLLIKYTSQPATGIPARFSGSGSGTDFTLTISSLEPEDFAVYYCQNGHSFPLTFGQGTKLEIK
notes: as for B1
With B14 the Kd was 7.7 nM.

B15: VH SEQ ID NO 634 / VL SEQ ID NO 502 (antibody, IgG4, V domains shown)
VH: QVQLQESGPGLVKPSQTLSLTCTVSGYSISSDSAWSWIRQPPGKGLEWIGYIQYSGSTNYNPSLKSRVTISRDTSKNQFSLKLSSVTAADTAVYYCARSVNYYGNSFAVGYWGQGTLVTVSS
VL: EIVLTQSPATLSLSPGERATLSCRASQGVSDYLHWYQQKPGQAPRLLIKYTSQPATGIPARFSGSGSGTDFTLTISSLEPEDFAVYYCQNGHSFPLTFGQGTKLEIK
notes: as for B1
For B15, the Kd was 1.3 nM.

B16: VH SEQ ID NO 642 / VL SEQ ID NO 310 (antibody, IgG4, V domains shown)
VH: QVQLQESGPGLVKPSQTLSLTCTVSGYSISSDSAWSWIRQPPGKGLEWIGYIYYSGSTNYNPSLKSRVTISVDTSKNQFSLKLSSVTAADTAVYYCARSVNYYGNSFAVGYWGQGTSVTVSS
VL: EIVLTQSPATLSLSPGERATLSCRASQGISDYLAWYQQKPGQAPRLLIKYASQPATGIPARFSGSGSGTDFTLTISSLEPEDFAVYYCQNGHSFPLTFGQGTKLEIK
notes: as for B1
B16 gave a Kd of 1600 nM.
